Measured values taken from patent US20180230213A1 (AVEO PHARMACEUTICALS, published 2018).

Tests used:
rhNotch1-Fc = molecular target: T1, rhNotch1-Fc (human, UniProt P46531 19-526); experiment: BLI (Octet QK): rhNotch1-Fc loaded on anti-human-Fc sensors, then antibody 4F11 in solution
T1 construct: also called human Notch1 protein; R&D Cat. No. 3647-TK-050
Protocol: (§1) Antibody 4F11 was tested for binding to human Notch1, human Notch2, or human Notch3 proteins. Binding measurements were made by biolayer interferometry (BLI), using a FortéBio Octet® QK instrument (FortéBio, Menlo Park, Calif.). Anti-human-Fc sensors were soaked in PBS containing 1 mg/ml BSA for five minutes prior to binding of antibodies. Then the following proteins (400 nM, in PBS containing 1 mg/ml BSA) were allowed to bind to the sensors: rhNotch1-Fc (R&D Systems, Minneapolis, Minn.; Cat. No. 3647-TK-050), rhNotch2-Fc (R&D Cat. No. 3735-NT-050), rhNotch3-Fc (R&D Cat. No. 1559-NT-050), or rmNotch3-Fc (R&D Cat. No. 1308-NT-050). Notch protein bound sensors were immersed in antibody solution (50 μg/ml) to allow binding of antibody to the Notch protein. Binding was detected by shifts in the interference pattern.

[1] = molecular target: T2, human Notch3 on the cell surface (human, UniProt Q9UM47 40-2321); experiment: cell-based or functional assay
rhNotch2-Fc = molecular target: T3, rhNotch2-Fc (human, UniProt Q04721 26-530); experiment: BLI (Octet QK): rhNotch2-Fc loaded on anti-human-Fc sensors, then antibody 4F11 in solution
T3 construct: also called human Notch2 protein; R&D Cat. No. 3735-NT-050
T3 sequence (looked up): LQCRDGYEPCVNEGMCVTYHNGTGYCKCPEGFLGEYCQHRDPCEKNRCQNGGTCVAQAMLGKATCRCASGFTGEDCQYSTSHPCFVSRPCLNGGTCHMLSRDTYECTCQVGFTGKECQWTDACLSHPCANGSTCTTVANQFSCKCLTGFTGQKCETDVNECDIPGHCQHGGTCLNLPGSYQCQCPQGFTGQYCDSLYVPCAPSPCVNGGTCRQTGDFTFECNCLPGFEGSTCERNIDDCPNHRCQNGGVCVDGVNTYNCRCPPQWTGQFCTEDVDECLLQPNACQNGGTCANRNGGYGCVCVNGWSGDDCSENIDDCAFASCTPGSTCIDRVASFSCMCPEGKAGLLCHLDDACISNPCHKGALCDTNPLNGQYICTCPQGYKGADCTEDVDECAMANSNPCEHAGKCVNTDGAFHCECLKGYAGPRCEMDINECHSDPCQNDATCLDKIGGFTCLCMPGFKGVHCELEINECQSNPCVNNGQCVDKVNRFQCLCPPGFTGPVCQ
Protocol: as §1

[2] = molecular target: T2, human Notch3 on the cell surface; experiment: FACS on HCC2429 cells (human Notch3), 4 C, one site binding fit
Protocol: Binding to cell surface human Notch3 by the antibody 4F11 was measured at 4° C., using Fluorescence Activated Cell Sorting (FACS). CHO N3 (Flp-In-CHO cells (Invitrogen) stably transfected with human Notch3), HCC2429 cells, and RL-952 cells expressing human Notch3 were washed once with PBS containing calcium chloride and magnesium chloride (Invitrogen) and harvested using cell dissociation buffer (Invitrogen). Cells were washed a second time with PBS and resuspended in FACS buffer (PBS with 0.5% BSA (Sigma-Aldrich)) for a final cell concentration of 250,000 cells per well into a 96-well v-bottom plate. Purified antibodies were diluted in FACS buffer over a concentration range of 100 nM to 0.1 nM. Cells were then incubated at 4° C. with […] of antibody for one hour, washed with FACS buffer twice, and resuspended in […] of goat-anti mouse PE-conjugated antibody (Jackson Immuno Research). Cells were incubated at 4° C. for 30 minutes in the dark, washed once with FACS buffer, and then analyzed using a Beckman Coulter Cytomics FC 500 instrument. The geometric mean of the florescent intensity was then calculated for each antibody concentration. These values were then entered into Prism software (GraphPad, La Jolla, Calif.) and used to generate a binding curve by plotting geometric mean versus antibody concentration. […]

B1: antibody 4F11 (murine monoclonal anti-human Notch3) (antibody, mouse IgG1, kappa, V domains shown)
VH: EVQLVESGGGLVKPGGSLKLSCAASGFAFSSYDMSWVRQTPEKRLEWVAYISRGGGSTYYPDTVKGRFTISRDNAKNTLYLQMSSLKSEDTAMYYCGRHATTAYWYFDVWGAGTTVTVSS
VL: DVVMTQTPLSLPVSLGDQASISCRSSQSLVHTNGNTYLHWYLQKPGQSPKLLIYKVSNRFSGVPDRFSGSGSGTDFTLKISRVEAEDLGVYFCSQSTHVPWTFGGGTKLEIKR
notes: Mouse IgG1 kappa purified from hybridoma; also called mu4F11; murine 4F11
rhNotch1-Fc
  binding result: no binding
[1]
  EC50, inhibition of Notch3-dependent reporter activity stimulated by DLL1: 6 nM
  EC50, inhibition of Notch3-dependent reporter activity stimulated by DLL4: 4.7 nM
  EC50, inhibition of Notch3-dependent reporter activity stimulated by Jag1: 2.6 nM
  EC50, inhibition of Notch3-dependent reporter activity stimulated by Jag2: 0.4 nM
rhNotch2-Fc
  binding result: no binding
[2]
  Kd: 2.58 nM
